Data taken from article PMC11036628.

Biological target: Dectin-1 (mouse (endogenous in bone marrow-derived dendritic cells)) (UniProt Q6QLQ4)
UniProt Q6QLQ4, sequence (Q6QLQ4 whole entry): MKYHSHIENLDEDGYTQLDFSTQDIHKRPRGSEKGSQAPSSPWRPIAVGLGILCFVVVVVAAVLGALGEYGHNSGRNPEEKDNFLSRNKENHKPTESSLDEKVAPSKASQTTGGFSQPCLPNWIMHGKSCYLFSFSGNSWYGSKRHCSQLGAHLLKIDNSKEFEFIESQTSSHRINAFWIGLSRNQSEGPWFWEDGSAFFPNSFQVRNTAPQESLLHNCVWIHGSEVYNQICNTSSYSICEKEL

Substance: Neem Leaf Glycoprotein (natural protein)
- IL-10 transcripts by quantitative PCR on NLGP addition to tumour-conditioned mBMDCs; counterbalanced by Laminarin, Dectin-1 siRNA and both: 4.5 fold
- IL-12p35 transcripts by quantitative PCR on NLGP addition to tumour-conditioned mBMDCs; counterbalanced by Laminarin, Dectin-1 siRNA and both: 1.5 fold
